For series [1], the target named is T1, pro-transglutaminase derived from S. mobaraense IFO13819 (transglutaminase having the pro-structure part).
T1 chain: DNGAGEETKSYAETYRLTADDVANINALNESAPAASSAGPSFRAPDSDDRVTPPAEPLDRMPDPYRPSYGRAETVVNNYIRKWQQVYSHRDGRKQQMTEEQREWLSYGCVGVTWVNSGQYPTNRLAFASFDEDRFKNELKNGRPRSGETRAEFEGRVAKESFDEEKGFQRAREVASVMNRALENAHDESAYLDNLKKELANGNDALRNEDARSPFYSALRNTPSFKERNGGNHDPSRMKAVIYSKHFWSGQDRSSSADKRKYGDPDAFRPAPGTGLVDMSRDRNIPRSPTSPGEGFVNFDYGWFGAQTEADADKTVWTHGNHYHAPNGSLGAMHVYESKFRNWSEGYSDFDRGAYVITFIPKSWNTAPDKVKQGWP

Series [2] has as its target T2, pro-transglutaminase of S. mobaraense, Ala-Pro deletion type of the pro-structure part.
T2 chain: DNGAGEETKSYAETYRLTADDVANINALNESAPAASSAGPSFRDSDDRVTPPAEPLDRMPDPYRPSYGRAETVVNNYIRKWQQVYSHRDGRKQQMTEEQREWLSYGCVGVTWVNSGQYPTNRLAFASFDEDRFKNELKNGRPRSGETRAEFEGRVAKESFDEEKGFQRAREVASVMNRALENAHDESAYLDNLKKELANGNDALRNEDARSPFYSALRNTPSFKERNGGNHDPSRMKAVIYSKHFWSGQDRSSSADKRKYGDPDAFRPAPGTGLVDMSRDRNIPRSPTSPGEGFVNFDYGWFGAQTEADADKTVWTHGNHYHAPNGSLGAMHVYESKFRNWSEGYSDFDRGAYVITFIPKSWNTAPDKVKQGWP

For series [3], the target named is T3, pro-transglutaminase of S. mobaraense, Asp deletion type of the pro-structure part.
T3 chain: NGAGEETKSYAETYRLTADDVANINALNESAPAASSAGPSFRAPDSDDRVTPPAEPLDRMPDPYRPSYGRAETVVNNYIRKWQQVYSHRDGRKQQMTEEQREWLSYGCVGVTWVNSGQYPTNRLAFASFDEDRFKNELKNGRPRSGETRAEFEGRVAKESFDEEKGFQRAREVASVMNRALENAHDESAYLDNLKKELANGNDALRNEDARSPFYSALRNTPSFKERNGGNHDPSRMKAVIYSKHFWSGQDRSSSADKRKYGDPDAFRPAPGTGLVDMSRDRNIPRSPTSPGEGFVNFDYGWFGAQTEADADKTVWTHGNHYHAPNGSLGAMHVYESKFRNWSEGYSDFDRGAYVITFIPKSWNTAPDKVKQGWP

Series [4] has as its target T4, pro-transglutaminase of S. mobaraense, Asp-Asn-Gly-Ala-Gly-Glu deletion type of the pro-structure part.
T4 chain: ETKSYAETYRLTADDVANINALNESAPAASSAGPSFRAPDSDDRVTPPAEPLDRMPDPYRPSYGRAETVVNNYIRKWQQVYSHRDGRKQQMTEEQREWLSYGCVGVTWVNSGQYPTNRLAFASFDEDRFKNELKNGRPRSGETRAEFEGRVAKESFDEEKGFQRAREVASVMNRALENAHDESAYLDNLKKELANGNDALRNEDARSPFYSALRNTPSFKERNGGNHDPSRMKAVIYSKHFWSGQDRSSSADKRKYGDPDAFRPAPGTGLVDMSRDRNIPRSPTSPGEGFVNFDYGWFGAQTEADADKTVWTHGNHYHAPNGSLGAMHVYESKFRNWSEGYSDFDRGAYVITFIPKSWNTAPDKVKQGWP

In series [5] the target is T5, pro-transglutaminase of S. mobaraense, Gly-Pro-Arg type modified variant of the pro-structure part.
T5 chain: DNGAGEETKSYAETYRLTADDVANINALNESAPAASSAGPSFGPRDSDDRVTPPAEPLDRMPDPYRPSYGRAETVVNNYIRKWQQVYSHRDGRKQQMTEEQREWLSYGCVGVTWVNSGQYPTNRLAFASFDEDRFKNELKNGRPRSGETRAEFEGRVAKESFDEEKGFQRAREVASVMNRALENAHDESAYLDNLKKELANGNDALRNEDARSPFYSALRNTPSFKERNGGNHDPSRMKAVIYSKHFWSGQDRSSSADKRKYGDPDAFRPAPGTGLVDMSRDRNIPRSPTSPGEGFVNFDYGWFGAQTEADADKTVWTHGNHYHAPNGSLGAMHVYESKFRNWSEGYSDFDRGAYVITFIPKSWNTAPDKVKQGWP

In series [6] the target is T6, pro-transglutaminase of S. mobaraense, Gly-Pro-Lys type modified variant of the pro-structure part.
T6 chain: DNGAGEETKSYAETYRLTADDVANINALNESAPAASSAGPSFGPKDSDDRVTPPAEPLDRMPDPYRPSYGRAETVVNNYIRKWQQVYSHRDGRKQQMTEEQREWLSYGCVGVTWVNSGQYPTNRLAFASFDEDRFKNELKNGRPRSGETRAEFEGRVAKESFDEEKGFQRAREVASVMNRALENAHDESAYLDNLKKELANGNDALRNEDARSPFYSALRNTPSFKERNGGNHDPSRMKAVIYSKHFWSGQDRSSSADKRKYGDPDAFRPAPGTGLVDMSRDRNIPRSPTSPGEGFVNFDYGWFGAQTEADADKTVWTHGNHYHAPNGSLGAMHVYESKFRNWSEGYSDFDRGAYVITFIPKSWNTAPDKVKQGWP

In series [7] the target is T7, pro-transglutaminase of S. mobaraense, Phe-Arg-Ala-Pro deletion type and Arg insertion-variant of the pro-structure part.
T7 chain: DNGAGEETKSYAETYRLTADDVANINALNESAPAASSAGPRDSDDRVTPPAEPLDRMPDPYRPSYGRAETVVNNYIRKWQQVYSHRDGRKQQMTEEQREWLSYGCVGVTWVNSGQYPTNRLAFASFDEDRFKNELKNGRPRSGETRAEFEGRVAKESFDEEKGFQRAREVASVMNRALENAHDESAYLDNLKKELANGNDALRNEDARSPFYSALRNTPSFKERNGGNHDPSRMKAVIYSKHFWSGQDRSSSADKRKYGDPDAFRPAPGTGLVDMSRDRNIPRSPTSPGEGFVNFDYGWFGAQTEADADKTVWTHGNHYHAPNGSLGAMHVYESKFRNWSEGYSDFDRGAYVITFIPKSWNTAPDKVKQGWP

Series [8] concerns the target T8, pro-transglutaminase of S. mobaraense, Phe-Arg-Ala-Pro deletion type and Lys insertion-variant of the pro-structure part.
T8 chain: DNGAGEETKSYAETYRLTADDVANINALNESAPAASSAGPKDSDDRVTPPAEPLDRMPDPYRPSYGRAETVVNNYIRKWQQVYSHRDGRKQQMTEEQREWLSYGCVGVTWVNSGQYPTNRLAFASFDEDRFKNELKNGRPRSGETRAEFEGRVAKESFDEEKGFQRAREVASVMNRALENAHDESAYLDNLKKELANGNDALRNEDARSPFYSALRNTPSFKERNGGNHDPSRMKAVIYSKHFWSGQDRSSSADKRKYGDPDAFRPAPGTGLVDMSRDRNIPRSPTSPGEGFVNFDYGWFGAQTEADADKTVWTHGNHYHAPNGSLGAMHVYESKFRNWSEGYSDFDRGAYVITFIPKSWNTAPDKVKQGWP

In series [9] the target is T9, pro-transglutaminase of S. mobaraense, Phe-Arg-Ala-Pro deletion type of the pro-structure part.
T9 chain: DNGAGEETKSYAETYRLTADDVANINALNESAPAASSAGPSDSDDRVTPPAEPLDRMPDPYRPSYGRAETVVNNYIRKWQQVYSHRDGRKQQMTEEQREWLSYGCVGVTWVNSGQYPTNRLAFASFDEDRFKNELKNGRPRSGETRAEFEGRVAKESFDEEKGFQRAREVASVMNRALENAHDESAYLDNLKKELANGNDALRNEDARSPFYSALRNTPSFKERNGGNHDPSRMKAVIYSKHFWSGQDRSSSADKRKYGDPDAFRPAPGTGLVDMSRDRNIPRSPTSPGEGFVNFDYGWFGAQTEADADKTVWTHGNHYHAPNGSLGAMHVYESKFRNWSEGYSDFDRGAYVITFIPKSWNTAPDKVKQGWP

B1: SAMP45, serine protease produced by Streptomyces albogriseolus (protein)
chain: NGENSTAAGSSASATALKGKHRVTLITGDRVALDAKGRVVGLEPAEGREHIPVQIRRSDGHTLVVPADAARLVASGKLDQRLFDVTELNKAATRTAHRGGLKVIVGYRGAAKAAKADVRDAGTVRRTLTSLNADAVQTPQEAGAELWEAVTDGDRTASGVARVWLDGVRKASLDTSVGQIGTPKAWEAGYDGKGVKIAVLDTGVDATHPDLKGQVTASKNFTSAPTTGDVVGHGTHVASIAAGTGAQSKGTYKGVAPGAKILNGKVLDDAGFGDDSGILAGMEWAAAQGADIVNMSLGGMDTPETDPLEAAVDKLSAEKGILFAIAAGNEGPQSIGSPGSADSALTVGAVDDKDKLADFSSTGPRLGDGAVKPDLTAPGVDITAASAKGNDIAKEVGEKPAGYMTISGTSMATPHVAGAAALLKQQHPEWKYAELKGALTASTKDGKYTPFEQGSGRVQVDKAITQTVIAEPVSLSFGVQQWPHADDKPVTKKLTYRNLGTEDVTLKLTSTATGPKGKAAPAGFFTLGASTLTVPANGTASVDVTADTRLGGAVDGTYSAYVVATGAGQSVRTAAAVEREVESYNVTLKVLDRSGKATANYMAYLSGLTGLGKDRSYAPYEADGAVSVRVPKGGYVLDASVLVGADPETWRGADWLAQPKLDVTRNTTVTVDARKAKPVKVTVPGKAAKAQFASADYTIETNDSAVSYGWWLENYSGFRSAHLGPQITNGTLSQQWNTHFSNGAKAQYTAISGGKVKKLATGYTRAFKAKEFATVQVGMGAAASGKKGAVTAFGWLPGSSGASGFSQEQKLPSTRTLYLSTVNGVTWDLDFEQLGGVDNEGWPIYDAVYTIGVGKTYKGGKTYKETVNTAVFGPRLTSSYGVFRDGNSIYGVIPLFADGKGHAGSSEFSSAVTTLYRNGKKVGSNNDPLFGEEGFTVPSGDAAYRLTTSVKRSAKVAAASTRIDASWTFRSKKTSGEKQLPVSSARFAAVTGLDSKVAAGKKATFPVVVEGAAQGKNLKSLAVYVSYNGGKTWKKTTVTKGKITVKNPAKGKAISFRAKITDKKGNASLITIHNAYYGK
Regarding B1, the “N-terminal amino acid sequence of the cleaved transglutaminase” value in [1] is “it had the structure in which the 4 C-terminal amino acids of Phe-Arg-Ala-Pro from the pro-structure part was added to the naturally occurring mature transglutaminase”; in series [2], “Phe-Arg was added to the N-terminal of the naturally occurring mature transglutaminase shown in SEQ ID NO: 5 in the transformant harboring pPKSPTG1 AP”; in series [3], “Phe-Arg-Ala-Pro was added to the naturally occurring mature transglutaminase in the transformant harboring pPKSPTG1 D or pPKSPTG1 DNGAGE”; in series [4], “Phe-Arg-Ala-Pro was added to the naturally occurring mature transglutaminase in the transformant harboring pPKSPTG1 D or pPKSPTG1 DNGAGE”; in [5], “the sequence identical to that of the naturally occurring mature transglutaminase was confirmed for C. glutamicum ATCC13869 harboring pVSS1 and pPKSPTG11, or pVSS1 and pPKSPTG12, which had Asp as the N-terminal amino acid residue”; in [6], “the sequence identical to that of the naturally occurring mature transglutaminase was confirmed for C. glutamicum ATCC13869 harboring pVSS1 and pPKSPTG11, or pVSS1 and pPKSPTG12, which had Asp as the N-terminal amino acid residue”. In addition, the “N-terminal amino acid sequence of the cleaved transglutaminase” value was “Ser-Ala-Gly-Pro-Lys (SEQ ID NO: 69) or Ser-Ala-Gly-Pro-Arg (SEQ ID NO: 70) was found to be added to the sequence of the naturally occurring mature transglutaminase for C. glutamicum ATCC13869 harboring pVSS1 and pPKSPTG13, or pVSS1 and pPKSPTG14” in series [7]; “Ser-Ala-Gly-Pro-Lys (SEQ ID NO: 69) or Ser-Ala-Gly-Pro-Arg (SEQ ID NO: 70) was found to be added to the sequence of the naturally occurring mature transglutaminase for C. glutamicum ATCC13869 harboring pVSS1 and pPKSPTG13, or pVSS1 and pPKSPTG14” in series [8]; “Ser-Ala-Gly-Pro-Ser was added to the N-terminal of the naturally occurring mature transglutaminase in the transformant harboring pPKSPTG1 FRAP” in series [9].

Values taken from US20030082746.
